First the molecules themselves.
B1: OR4K15 (parent)
chain: GUUAACGGUCAUAGGCCAUGGAAACUAGGAGCACCAUUUCGCUGCCAGUGAAGAAAUGAACAAAGAAAAUCUGGGCCAGGCAGGCAUCAAAAGAAAUAGUCUUGCGCUCAACCAGAAAGUCUGUAAUCAUUUUAAGGGUA

The record followed here is the RNAGym collection of RNA variant scans (doi:10.7554/elife.90254).

The data set covers variants of B1. The experiment in a line: self-cleavage, relative activity (ratio to wild type); higher = more cleavage; in vitro, sequencing; the parent is a self-cleaving ribozyme.
As for U37C A67G, the self-cleavage came to 0.68.

Consider A36G G75A, for which the self-cleavage stood at 0.09.

For the variant U38C G79A, the self-cleavage amounted to 0.22.

For the variant A36G C112U, the self-cleavage was found to be 0.03.

As to U37C U38C, the self-cleavage amounted to 1.51.

Regarding A36U U102C, the self-cleavage worked out at 2.06.

U37G A118G: the self-cleavage amounted to 0.99.

For U38A A134G, the self-cleavage worked out at 1.9.

A36G U39C: the self-cleavage was determined as 0.79.

Take U39C A47U: the self-cleavage turned out to be 0.79.

Regarding U37C A82U, the self-cleavage is 0.13.

Turning to U38A U57C, the self-cleavage was determined as 0.69.

In the case of A36G U70C, the self-cleavage is 0.6.

On to U38A A110G, for which the self-cleavage is 0.16.

Regarding U38A A56C, the self-cleavage is 1.55.

In the case of U37C A140U, the self-cleavage came to 1.87.

For the variant U38G A54G, the self-cleavage was determined as 1.38.

U39C A52U: the self-cleavage amounted to 2.16.

As for U38C C101U, the self-cleavage turned out to be 0.35.

As to A36U A82G, the self-cleavage was 0.39.

Consider A36U U37C, for which the self-cleavage worked out at 0.59.

Turning to A36U A60U, the self-cleavage stood at 2.08.

In the case of A36U A60G, the self-cleavage was 1.11.

As for U37C A110G, the self-cleavage was found to be 0.13.

As for U37C C109A, the self-cleavage is 0.34.

As for U38C A110U, the self-cleavage worked out at 1.46.

As to U39A A52U, the self-cleavage is 1.65.

Consider U37C A135U, for which the self-cleavage is 2.17.

As for U39A A54U, the self-cleavage was 1.18.

On to U38A U103C, for which the self-cleavage stood at 0.64.

For the variant U38A U103G, the self-cleavage was determined as 0.04.

Take U38A A51G: the self-cleavage turned out to be 1.33.

As to U37C A114G, the self-cleavage turned out to be 0.34.

As to U37C A126G, the self-cleavage was 1.31.

As for U37C G136A, the self-cleavage was found to be 2.23.

With U37C C128A, the self-cleavage was 0.17.

With A36U A114G, the self-cleavage was 0.6.

Consider A36U A114U, for which the self-cleavage amounted to 0.14.

On to U38A A94U, for which the self-cleavage is 1.28.

U38A A94C: the self-cleavage worked out at 1.68.

Consider U38A A94G, for which the self-cleavage is 1.85.

Consider U39A A64G, for which the self-cleavage was determined as 0.93.

In the case of U39A A64U, the self-cleavage was found to be 1.87.

Turning to U38A A54G, the self-cleavage worked out at 0.28.

Consider U39A A95G, for which the self-cleavage is 2.05.

Consider U37C G48A, for which the self-cleavage is 1.59.

On to U38A A68G, for which the self-cleavage turned out to be 0.82.

Consider U39A G115C, for which the self-cleavage is 0.52.

Turning to U39A G115U, the self-cleavage turned out to be 0.27.

With U37A A91G, the self-cleavage came to 0.78.

In the case of A36G U43C, the self-cleavage was found to be 1.91.

Consider A36G U43A, for which the self-cleavage came out at 1.27.

Consider U39A A89U, for which the self-cleavage came out at 2.25.

On to U39A A89G, for which the self-cleavage is 2.23.

As for U38C U127A, the self-cleavage was 2.78.

For the variant U37A A98G, the self-cleavage is 1.07.

In the case of U37C U131C, the self-cleavage amounted to 1.15.

In the case of U37C A90U, the self-cleavage is 0.91.

For the variant U37C A90G, the self-cleavage is 1.12.

On to A36U U127A, for which the self-cleavage amounted to 2.98.

Consider U37C G74U, for which the self-cleavage worked out at 0.2.

For the variant A36G U97C, the self-cleavage amounted to 2.04.

Take A36U A125G: the self-cleavage was determined as 0.7.

Turning to U39A U57A, the self-cleavage was determined as 1.37.

A36U C105U: the self-cleavage was 0.17.

With U38C G137U, the self-cleavage amounted to 2.1.

In the case of U39A A114G, the self-cleavage stood at 0.77.

In the case of A36G C76A, the self-cleavage was determined as 0.12.

In the case of A36U C76A, the self-cleavage came to 0.1.

In the case of U37A A59G, the self-cleavage was 1.78.

On to U38C A129U, for which the self-cleavage was determined as 1.21.

In the case of U38C A129G, the self-cleavage was 1.31.

For U37C A55U, the self-cleavage turned out to be 1.57.

U37C U57C: the self-cleavage was found to be 1.18.

For U37A U102C, the self-cleavage was determined as 1.85.

In the case of U38C G41U, the self-cleavage worked out at 1.46.

On to U38C A134G, for which the self-cleavage came to 1.74.

Take U37C C42G: the self-cleavage turned out to be 1.69.

On to U38C A90U, for which the self-cleavage worked out at 2.23.

U39A U130C: the self-cleavage stood at 1.09.

With U37C G73A, the self-cleavage is 0.19.

On to U37C U43A, for which the self-cleavage was determined as 1.55.

Regarding A36U U108A, the self-cleavage was determined as 0.

For the variant A36U U108C, the self-cleavage was 0.02.

Take U38C A56G: the self-cleavage amounted to 1.5.

Take U38C A51G: the self-cleavage is 1.33.

For the variant U38C A51U, the self-cleavage was determined as 1.24.

On to U37C A66U, for which the self-cleavage is 1.7.

For the variant U37C G75A, the self-cleavage came out at 0.08.

On to A36U A110G, for which the self-cleavage amounted to 0.21.

As to U37C G106A, the self-cleavage was 0.01.

As for U39C A69C, the self-cleavage is 1.33.

Consider U39C A68G, for which the self-cleavage was 1.37.

On to U39A A116U, for which the self-cleavage came to 0.09.

In the case of U39A A96G, the self-cleavage turned out to be 1.56.

Turning to A36U A118G, the self-cleavage was 1.05.

Regarding U39A U102C, the self-cleavage is 1.55.

As for U38A A60G, the self-cleavage stood at 1.32.

For U37G A51G, the self-cleavage was determined as 1.31.

For the variant A36G U133A, the self-cleavage amounted to 2.28.

For U38G A116G, the self-cleavage was 1.67.

Take A36U A67G: the self-cleavage was 1.86.

Consider A36U A67U, for which the self-cleavage is 1.55.

As for U39A A47G, the self-cleavage amounted to 0.44.

As to U39A C112G, the self-cleavage came to 0.

For the variant U38G A62C, the self-cleavage was determined as 0.78.

On to U37C G84A, for which the self-cleavage was found to be 1.7.

With U38A A90G, the self-cleavage stood at 1.18.

Take U38A G137U: the self-cleavage is 2.73.

For U37C U102C, the self-cleavage was 1.49.

Consider A36U A90U, for which the self-cleavage is 1.74.

In the case of A36U U43C, the self-cleavage is 2.05.

With U37C A116G, the self-cleavage was determined as 0.98.

In the case of U37C G104A, the self-cleavage amounted to 0.03.

As for U37C A47G, the self-cleavage came to 1.19.

As for A36U A95U, the self-cleavage was determined as 1.37.

In the case of A36U A95G, the self-cleavage came out at 2.18.

As for U38C A117G, the self-cleavage was 1.18.

Take U37A A60U: the self-cleavage was determined as 1.8.

Turning to U37A A60G, the self-cleavage amounted to 1.14.

Take A36U A92G: the self-cleavage worked out at 1.61.

Take U37C A68G: the self-cleavage amounted to 1.25.

With U39A A125U, the self-cleavage worked out at 2.5.

For U37C A62U, the self-cleavage amounted to 1.49.

For U39C A64G, the self-cleavage came to 1.88.

With U37C U139C, the self-cleavage amounted to 1.72.

Consider A36G U37C, for which the self-cleavage was found to be 1.71.

Turning to U38C A66G, the self-cleavage was 1.97.

Consider U38C A66U, for which the self-cleavage worked out at 1.32.

U37G A96G: the self-cleavage was 1.97.

Regarding U38A G74A, the self-cleavage came to 0.21.

A36G U103C: the self-cleavage is 0.43.

As to U38C A94C, the self-cleavage came to 1.41.

As to U37C C81U, the self-cleavage worked out at 0.49.

For U38C C61U, the self-cleavage stood at 1.86.

For A36U A56C, the self-cleavage is 1.49.

For the variant A36U A56G, the self-cleavage came to 1.46.

Turning to A36U A56U, the self-cleavage is 1.12.

For U38C U124A, the self-cleavage came out at 0.81.

Turning to U38A U124A, the self-cleavage was 0.87.

Consider A36U U120C, for which the self-cleavage was found to be 1.34.

U38A U108G: the self-cleavage worked out at 0.01.

In the case of U38A U108A, the self-cleavage was 0.04.

Take U37C U70A: the self-cleavage came out at 1.1.

A36G G136A: the self-cleavage came to 1.79.

Take U38A G93A: the self-cleavage stood at 2.09.

U37C A117U: the self-cleavage is 1.11.

On to U37C A117G, for which the self-cleavage is 1.98.

Regarding U37A U100C, the self-cleavage worked out at 2.33.

U37A A67U: the self-cleavage turned out to be 0.67.

Regarding A36G C113U, the self-cleavage stood at 0.07.

Consider U38C A82G, for which the self-cleavage was found to be 0.57.

U38A A89G: the self-cleavage came out at 2.67.

U37G A90G: the self-cleavage was 0.38.

U38C U108A: the self-cleavage worked out at 0.03.

For U37C U132C, the self-cleavage worked out at 1.54.

Consider U37C U132A, for which the self-cleavage was 1.34.

In the case of U37C G44A, the self-cleavage turned out to be 1.56.

For the variant U37C U97C, the self-cleavage turned out to be 2.06.

Regarding U37C A59G, the self-cleavage came out at 1.72.

As for U39C A95U, the self-cleavage worked out at 1.78.

Regarding A36G U87A, the self-cleavage turned out to be 2.26.

A36G U87C: the self-cleavage stood at 2.04.

Consider U38C A125G, for which the self-cleavage stood at 0.54.

With U38A G104A, the self-cleavage worked out at 0.

Consider U38C U132C, for which the self-cleavage amounted to 1.64.

Turning to U37C C77U, the self-cleavage was 2.11.
